Test results: article PMC13393415, “The bacterial SOS response promotes the expression of the transposase encoded by ISCR mobile genetic elements”
Changes are numbered by the printed parent chain.

B1: Prcr8 (dsDNA)
DNA 1: GGCGACGGTTCGGGCCTTGTGCTTTGCGTACCCAAACAATCGCCGCAGAATACTGTGCATTTGTACAGCATTCATGTCAGCCACTTCCAAGCCCAAGCTCTACAACCCACGCCACCCCGA
DNA 2: TCGGGGTGGCGTGGGTTGTAGAGCTTGGGCTTGGAAGTGGCTGACATGAATGCTGTACAAATGCACAGTATTCTGCGGCGATTGTTTGGGTACGCAAAGCACAAGGCCCGAACCGTCGCC
B2: Prcr8 L (dsDNA)
DNA 1: B1 DNA 1 with C66A, A67C, G68T
DNA 2: B1 DNA 2 with C53A, T54G, G55T
modifications: LexA box mutated (terminal ACAG to AACT)

Experiments:
[1] = biological target: T1, His6-LexA (Escherichia coli) (UniProt P0A7C2); experiment: EMSA; details: 10 mM HEPES pH 8, 10 mM Tris-HCl pH 8, 50 mM KCl, 1 mM EDTA; on ice 20 min; 40 ng DNA, 0-600 ng LexA in 10 uL; 6% native Tris-glycine PAGE, SYBR Green
T1 sequence: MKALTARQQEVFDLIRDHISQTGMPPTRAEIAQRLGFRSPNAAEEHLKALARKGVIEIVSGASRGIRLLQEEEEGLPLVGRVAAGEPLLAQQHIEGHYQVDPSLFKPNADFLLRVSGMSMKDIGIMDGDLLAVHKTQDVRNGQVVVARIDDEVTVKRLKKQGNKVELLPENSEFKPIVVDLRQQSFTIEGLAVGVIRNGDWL

His6-LexA = His6-LexA (Escherichia coli, UniProt P0A7C2 1-202); experiment: EMSA; 10 mM HEPES pH 8, 10 mM Tris-HCl pH 8, 50 mM KCl, 1 mM EDTA; on ice 20 min; 40 ng DNA, 0-600 ng LexA in 10 uL; 6% native Tris-glycine PAGE, SYBR Green; details: protein: recombinant; tags: N-terminal His6; blunt

Molecule	binding [1]	binding result (His6-LexA)
CCGGAATTCGGGAGTGACGGGCACTGGCTGGCAATGTCTAGCAACGGCAGGCATTTCGGCTGAGGGTAAAAGAACTTTCCGCTAAGCGATAGACTGTATGTAAACACAGTATTGCAAGGACGCGGAACATGCCTCATGTGGCGGCCAGGACGGCCAGCCGGGATCGGGATACTGGTCGTTACCAGAGCCACCGACCCGAGCAAACCCTT (double strand) [Prcr2]	binds	–
CAACCGGTAGTGGCTGATAACAACTCGTGAGGGCTATTGCGGGTTAAGCATTTAGCGATGTCTAGGGCCAGACTGGACGTCTGAACGCAAGCCGCTGATACTGTACATAACCACAGTATCAGCGGAGGATACCCATGTCGCTGGCAAGGAACGCCACGGCGAGTCAATCGCCCACTCAAACAAACGGTTACGAACGCCACCAACCCGACCAGACGCTG (double strand) [Prcr1]	binds	–
B1	–	binds
B2	–	no binding
